Measurements taken from the RNAGym collection of RNA variant scans (doi:10.7554/elife.80360).

B1: CPEB3 Ribozyme (parent)
chain: GGGGGCCACAGCAGAAGCGUUCACGUCGCGGCCCCUGUCAGAUUCUGGUGAAUCUGCGAAUUCUGCUGU

Variants of: B1
Assay: self-cleavage, relative activity (ratio to wild type); higher = more cleavage; co-transcriptional
With GGGGGCCACAGCAGAAGCGUUCACGUCGCGGCCCCUGUCAGAUUCUGGUGAAUGUGCGAACUCUGCUGU [C54G U61C] the self-cleavage was 0.429.
GGGGGCCACAGCAGAAGCGUUCACGUCGCGGCCCCUGUCAGAUUCUGGUGAAUAUGCGAAUCCUGCUGU [C54A U62C] showed a self-cleavage of 0.538.
In the case of GGGGGCCACAGCAGAAGCGUUCACGUCGCGGCCCCUGUCAGAUUCUGGUGAAUAUGCGAAUGCUGCUGU [C54A U62G], the self-cleavage is reported as 0.58.
With GGGGGCCACAGCAGAAGCGUUCACGUCGCGGCCCCUGUCAGAUUCUGGUGAAUGUGCGAAUUCUGCUGU [C54G] the self-cleavage was 0.951.
For GGGGGCCACAGCAGAAGCGUUCACGUCGCGGCCCCUGUCAGAUUCUGGUGAAUUUGCGAAUUCUGCUGU [C54U], the self-cleavage was 1.
With GGGGGCCACAGCAGAAGCGUUCACGUCGCGGCCCCUGUCAGAUUCUGGUGAAUUUGCAAAUUCUGCUGU [C54U G58A] the self-cleavage was 0.987.
With GGGGGCCACAGCAGAAGCGUUCACGUCGCGGCCCCUGUCAGAUUCUGGUGAAUUUGCCAAUUCUGCUGU [C54U G58C] the self-cleavage was 0.97.
For GGGGGCCACAGCAGAAGCGUUCACGUCGCGGCCCCUGUCAGAUUCUGGUGAAUGUGCGAAUUCUGCUGG [C54G U69G], the self-cleavage was 1.05.
With GGGGGCCACAGCAGAAGCGUUCACGUCGCGGCCCCUGUCAGAUUCUGGUGAAUGUGCGAAUUCUGCUGA [C54G U69A] the self-cleavage was 1.01.
GGGGGCCACAGCAGAAGCGUUCACGUCGCGGCCCCUGUCAGAUUCUGGUGAAUAUGCGAAUUCUGCAGU [C54A U67A] gave a self-cleavage of 0.954.
With GGGGGCCACAGCAGAAGCGUUCACGUCGCGGCCCCUGUCAGAUUCUGGUGAAUGUGCGACUUCUGCUGU [C54G A60C] the self-cleavage was 0.282.
GGGGGCCACAGCAGAAGCGUUCACGUCGCGGCCCCUGUCAGAUUCUGGUGAAUGUGCGAUUUCUGCUGU [C54G A60U] showed a self-cleavage of 0.393.
GGGGGCCACAGCAGAAGCGUUCACGUCGCGGCCCCUGUCAGAUUCUGGUGAAUGUGCGAGUUCUGCUGU [C54G A60G] showed a self-cleavage of 0.541.
With GGGGGCCACAGCAGAAGCGUUCACGUCGCGGCCCCUGUCAGAUUCUGGUGAAUGUGCGAAUUCUGUUGU [C54G C66U] the self-cleavage was 0.821.
GGGGGCCACAGCAGAAGCGUUCACGUCGCGGCCCCUGUCAGAUUCUGGUGAAUGUGCGAAUACUGCUGU [C54G U62A] gave a self-cleavage of 0.59.
GGGGGCCACAGCAGAAGCGUUCACGUCGCGGCCCCUGUCAGAUUCUGGUGAAUGUGCGAAUUCUGCGGU [C54G U67G] showed a self-cleavage of 0.925.
In the case of GGGGGCCACAGCAGAAGCGUUCACGUCGCGGCCCCUGUCAGAUUCUGGUGAAUGUGCGAAUUCUGCCGU [C54G U67C], the self-cleavage is reported as 0.819.
Work on GGGGGCCACAGCAGAAGCGUUCACGUCGCGGCCCCUGUCAGAUUCUGGUGAAUUUGCGAAUCCUGCUGU [C54U U62C] yielded a self-cleavage of 1.02.
In the case of GGGGGCCACAGCAGAAGCGUUCACGUCGCGGCCCCUGUCAGAUUCUGGUGAAUUUGCGAAUGCUGCUGU [C54U U62G], the self-cleavage is reported as 0.951.
GGGGGCCACAGCAGAAGCGUUCACGUCGCGGCCCCUGUCAGAUUCUGGUGAAUUUGCGAAUACUGCUGU [C54U U62A] showed a self-cleavage of 0.901.
Variant GGGGGCCACAGCAGAAGCGUUCACGUCGCGGCCCCUGUCAGAUUCUGGUGAAUAUGCGAAUUCUGCUGA [C54A U69A] has a self-cleavage of 1.01.
For GGGGGCCACAGCAGAAGCGUUCACGUCGCGGCCCCUGUCAGAUUCUGGUGAAUAUGCGAAUUCUGCUGC [C54A U69C], the self-cleavage was 1.04.
GGGGGCCACAGCAGAAGCGUUCACGUCGCGGCCCCUGUCAGAUUCUGGUGAAUGUGCGAAUUCGGCUGU [C54G U64G] gave a self-cleavage of 0.533.
Variant GGGGGCCACAGCAGAAGCGUUCACGUCGCGGCCCCUGUCAGAUUCUGGUGAAUGUGCUAAUUCUGCUGU [C54G G58U] has a self-cleavage of 0.93.
GGGGGCCACAGCAGAAGCGUUCACGUCGCGGCCCCUGUCAGAUUCUGGUGAAUGUGCCAAUUCUGCUGU [C54G G58C] showed a self-cleavage of 0.829.
Work on GGGGGCCACAGCAGAAGCGUUCACGUCGCGGCCCCUGUCAGAUUCUGGUGAAUGUGCGAAUUCUUCUGU [C54G G65U] yielded a self-cleavage of 0.587.
For GGGGGCCACAGCAGAAGCGUUCACGUCGCGGCCCCUGUCAGAUUCUGGUGAAUGUGCGAAUUCUACUGU [C54G G65A], the self-cleavage was 0.663.
In the case of GGGGGCCACAGCAGAAGCGUUCACGUCGCGGCCCCUGUCAGAUUCUGGUGAAUAUGCUAAUUCUGCUGU [C54A G58U], the self-cleavage is reported as 0.968.
Work on GGGGGCCACAGCAGAAGCGUUCACGUCGCGGCCCCUGUCAGAUUCUGGUGAAUAUGCCAAUUCUGCUGU [C54A G58C] yielded a self-cleavage of 0.857.
Variant GGGGGCCACAGCAGAAGCGUUCACGUCGCGGCCCCUGUCAGAUUCUGGUGAAUAUACGAAUUCUGCUGU [C54A G56A] has a self-cleavage of 0.695.
GGGGGCCACAGCAGAAGCGUUCACGUCGCGGCCCCUGUCAGAUUCUGGUGAAUAUUCGAAUUCUGCUGU [C54A G56U] gave a self-cleavage of 0.471.
With GGGGGCCACAGCAGAAGCGUUCACGUCGCGGCCCCUGUCAGAUUCUGGUGAAUAUGCGAAUUCAGCUGU [C54A U64A] the self-cleavage was 0.543.
For GGGGGCCACAGCAGAAGCGUUCACGUCGCGGCCCCUGUCAGAUUCUGGUGAAUAUGCGAAUUCCGCUGU [C54A U64C], the self-cleavage was 0.483.
GGGGGCCACAGCAGAAGCGUUCACGUCGCGGCCCCUGUCAGAUUCUGGUGAAUAUGCGAAUUCUGCUAU [C54A G68A] showed a self-cleavage of 0.955.
For GGGGGCCACAGCAGAAGCGUUCACGUCGCGGCCCCUGUCAGAUUCUGGUGAAUUUACGAAUUCUGCUGU [C54U G56A], the self-cleavage was 0.923.
GGGGGCCACAGCAGAAGCGUUCACGUCGCGGCCCCUGUCAGAUUCUGGUGAAUUUCCGAAUUCUGCUGU [C54U G56C] showed a self-cleavage of 0.466.
GGGGGCCACAGCAGAAGCGUUCACGUCGCGGCCCCUGUCAGAUUCUGGUGAAUUUUCGAAUUCUGCUGU [C54U G56U] gave a self-cleavage of 0.75.
With GGGGGCCACAGCAGAAGCGUUCACGUCGCGGCCCCUGUCAGAUUCUGGUGAAUUUGGGAAUUCUGCUGU [C54U C57G] the self-cleavage was 0.407.
For GGGGGCCACAGCAGAAGCGUUCACGUCGCGGCCCCUGUCAGAUUCUGGUGAAUUUGAGAAUUCUGCUGU [C54U C57A], the self-cleavage was 0.413.
